Experimental data as given in patent publication US20160200782A1 (MOERAE MATRIX, published 2016).

Assays:
Assay in all cases: cell-based or functional assay
[1] = molecular target: T1, NEK2(h) (human, UniProt P51955 1-445, limits assumed)
T1 sequence (looked up): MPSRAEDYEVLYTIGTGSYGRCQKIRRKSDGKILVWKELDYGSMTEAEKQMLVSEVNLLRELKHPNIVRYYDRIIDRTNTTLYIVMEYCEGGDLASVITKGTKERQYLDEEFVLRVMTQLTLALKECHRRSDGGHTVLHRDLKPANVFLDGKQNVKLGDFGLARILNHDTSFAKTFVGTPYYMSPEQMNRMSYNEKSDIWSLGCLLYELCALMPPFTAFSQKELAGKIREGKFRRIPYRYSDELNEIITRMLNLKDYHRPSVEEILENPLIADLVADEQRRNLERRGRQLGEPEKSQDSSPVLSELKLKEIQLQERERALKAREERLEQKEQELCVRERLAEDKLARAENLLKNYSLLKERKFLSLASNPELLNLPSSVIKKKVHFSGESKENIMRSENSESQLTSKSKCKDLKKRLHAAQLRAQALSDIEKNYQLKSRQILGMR

[2] = molecular target: ROCK-I(h) (human, UniProt Q13464 17-535)
[3] = molecular target: T2, BrSK2(h) (human, UniProt Q8IWQ3 1-736, limits assumed)
T2 sequence (looked up): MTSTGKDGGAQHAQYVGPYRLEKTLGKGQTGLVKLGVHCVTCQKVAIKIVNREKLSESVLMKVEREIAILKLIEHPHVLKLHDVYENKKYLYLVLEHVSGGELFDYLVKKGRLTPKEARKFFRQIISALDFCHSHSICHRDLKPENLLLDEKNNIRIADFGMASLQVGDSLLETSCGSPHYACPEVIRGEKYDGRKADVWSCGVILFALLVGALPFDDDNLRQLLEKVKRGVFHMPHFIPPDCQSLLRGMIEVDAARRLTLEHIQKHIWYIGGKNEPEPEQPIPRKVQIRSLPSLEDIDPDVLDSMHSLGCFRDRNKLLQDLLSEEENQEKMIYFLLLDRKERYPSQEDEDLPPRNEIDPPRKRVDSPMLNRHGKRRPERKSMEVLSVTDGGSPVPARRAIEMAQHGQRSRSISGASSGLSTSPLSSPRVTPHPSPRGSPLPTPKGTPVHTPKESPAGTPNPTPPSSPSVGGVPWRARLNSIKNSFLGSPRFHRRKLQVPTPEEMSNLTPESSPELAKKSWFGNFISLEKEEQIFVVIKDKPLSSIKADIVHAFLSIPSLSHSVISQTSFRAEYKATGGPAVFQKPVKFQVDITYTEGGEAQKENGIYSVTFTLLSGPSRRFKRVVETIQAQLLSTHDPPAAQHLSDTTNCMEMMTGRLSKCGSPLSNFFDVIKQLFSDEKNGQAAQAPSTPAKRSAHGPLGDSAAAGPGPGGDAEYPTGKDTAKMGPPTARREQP

[4] = molecular target: T3, DDR2(h) (human, UniProt Q16832 422-855, limits assumed)
T3 sequence (looked up): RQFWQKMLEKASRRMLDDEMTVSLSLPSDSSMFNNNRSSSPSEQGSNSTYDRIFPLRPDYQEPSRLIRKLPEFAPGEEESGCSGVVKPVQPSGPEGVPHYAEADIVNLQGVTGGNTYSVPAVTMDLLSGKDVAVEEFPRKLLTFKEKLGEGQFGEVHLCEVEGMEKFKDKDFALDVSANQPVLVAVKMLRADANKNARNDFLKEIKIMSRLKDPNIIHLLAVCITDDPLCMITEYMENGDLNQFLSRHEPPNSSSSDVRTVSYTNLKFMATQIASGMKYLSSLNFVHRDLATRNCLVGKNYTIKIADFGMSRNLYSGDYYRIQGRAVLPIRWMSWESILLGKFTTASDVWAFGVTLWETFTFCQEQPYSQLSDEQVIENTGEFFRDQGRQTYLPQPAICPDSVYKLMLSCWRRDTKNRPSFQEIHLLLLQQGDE

[5] = molecular target: T4, DMPK(h) (human, UniProt Q09013 1-629, limits assumed)
T4 sequence (looked up): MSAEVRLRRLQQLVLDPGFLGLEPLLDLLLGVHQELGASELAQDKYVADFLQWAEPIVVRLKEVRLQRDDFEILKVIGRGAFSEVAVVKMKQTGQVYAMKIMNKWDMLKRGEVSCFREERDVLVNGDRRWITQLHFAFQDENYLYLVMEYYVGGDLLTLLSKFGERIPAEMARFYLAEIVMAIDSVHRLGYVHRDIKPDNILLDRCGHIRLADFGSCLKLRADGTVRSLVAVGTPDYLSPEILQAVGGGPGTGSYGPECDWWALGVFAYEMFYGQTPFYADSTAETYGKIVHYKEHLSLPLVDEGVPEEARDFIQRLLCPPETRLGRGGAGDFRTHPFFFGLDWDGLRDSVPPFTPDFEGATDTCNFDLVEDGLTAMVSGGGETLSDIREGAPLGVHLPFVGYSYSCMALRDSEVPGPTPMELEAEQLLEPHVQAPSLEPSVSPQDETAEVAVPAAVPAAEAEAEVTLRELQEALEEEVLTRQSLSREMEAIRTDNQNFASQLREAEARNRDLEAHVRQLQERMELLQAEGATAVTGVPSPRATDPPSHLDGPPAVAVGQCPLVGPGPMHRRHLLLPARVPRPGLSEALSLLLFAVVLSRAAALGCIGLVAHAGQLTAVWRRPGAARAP

[6] = molecular target: T5, EphB2(h) (human, UniProt P29323 565-986, limits assumed)
T5 sequence (looked up): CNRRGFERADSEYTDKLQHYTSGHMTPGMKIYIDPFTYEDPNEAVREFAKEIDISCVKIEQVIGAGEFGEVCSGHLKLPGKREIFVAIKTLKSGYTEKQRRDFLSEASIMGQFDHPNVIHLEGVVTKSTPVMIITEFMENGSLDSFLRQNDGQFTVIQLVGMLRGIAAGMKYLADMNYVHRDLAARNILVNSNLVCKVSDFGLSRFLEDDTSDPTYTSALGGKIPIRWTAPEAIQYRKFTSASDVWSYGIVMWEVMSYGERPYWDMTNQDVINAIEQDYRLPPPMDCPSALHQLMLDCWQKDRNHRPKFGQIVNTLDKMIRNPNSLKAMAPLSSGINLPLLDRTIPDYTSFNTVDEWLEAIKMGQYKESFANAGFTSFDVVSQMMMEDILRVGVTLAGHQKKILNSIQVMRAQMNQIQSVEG

[7] = molecular target: FAK(h) (human, UniProt Q05397 1-1052, limits assumed)
Also: test concentration or dose not given here.

Sequence of FAK(h) (Q05397 whole entry): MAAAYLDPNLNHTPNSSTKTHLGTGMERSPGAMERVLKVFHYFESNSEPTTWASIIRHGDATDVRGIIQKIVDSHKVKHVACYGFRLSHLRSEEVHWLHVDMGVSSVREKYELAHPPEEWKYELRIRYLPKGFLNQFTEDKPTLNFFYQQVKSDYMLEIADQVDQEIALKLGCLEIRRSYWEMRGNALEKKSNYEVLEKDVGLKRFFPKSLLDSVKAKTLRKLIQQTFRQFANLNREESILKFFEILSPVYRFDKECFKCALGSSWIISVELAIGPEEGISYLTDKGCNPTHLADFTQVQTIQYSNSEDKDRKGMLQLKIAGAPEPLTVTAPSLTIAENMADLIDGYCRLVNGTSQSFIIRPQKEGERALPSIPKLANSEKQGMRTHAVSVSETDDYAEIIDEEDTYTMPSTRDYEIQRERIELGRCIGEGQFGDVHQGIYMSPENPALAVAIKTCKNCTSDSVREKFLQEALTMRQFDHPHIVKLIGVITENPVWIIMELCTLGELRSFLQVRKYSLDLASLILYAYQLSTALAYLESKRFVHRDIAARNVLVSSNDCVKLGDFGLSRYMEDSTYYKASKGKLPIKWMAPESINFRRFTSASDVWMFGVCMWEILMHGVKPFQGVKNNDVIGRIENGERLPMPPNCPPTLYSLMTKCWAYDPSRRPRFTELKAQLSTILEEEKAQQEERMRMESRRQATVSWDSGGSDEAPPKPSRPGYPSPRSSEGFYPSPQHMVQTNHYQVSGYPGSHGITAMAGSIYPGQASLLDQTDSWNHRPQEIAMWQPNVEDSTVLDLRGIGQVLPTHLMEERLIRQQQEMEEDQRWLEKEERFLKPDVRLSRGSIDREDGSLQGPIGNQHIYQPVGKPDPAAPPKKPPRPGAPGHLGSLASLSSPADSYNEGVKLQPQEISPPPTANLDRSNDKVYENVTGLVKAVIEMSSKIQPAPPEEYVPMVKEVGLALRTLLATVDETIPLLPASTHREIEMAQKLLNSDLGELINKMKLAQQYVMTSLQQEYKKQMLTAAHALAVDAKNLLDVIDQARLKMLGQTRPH
Sequence of ROCK-I(h) (Q13464 17-535 limits assumed): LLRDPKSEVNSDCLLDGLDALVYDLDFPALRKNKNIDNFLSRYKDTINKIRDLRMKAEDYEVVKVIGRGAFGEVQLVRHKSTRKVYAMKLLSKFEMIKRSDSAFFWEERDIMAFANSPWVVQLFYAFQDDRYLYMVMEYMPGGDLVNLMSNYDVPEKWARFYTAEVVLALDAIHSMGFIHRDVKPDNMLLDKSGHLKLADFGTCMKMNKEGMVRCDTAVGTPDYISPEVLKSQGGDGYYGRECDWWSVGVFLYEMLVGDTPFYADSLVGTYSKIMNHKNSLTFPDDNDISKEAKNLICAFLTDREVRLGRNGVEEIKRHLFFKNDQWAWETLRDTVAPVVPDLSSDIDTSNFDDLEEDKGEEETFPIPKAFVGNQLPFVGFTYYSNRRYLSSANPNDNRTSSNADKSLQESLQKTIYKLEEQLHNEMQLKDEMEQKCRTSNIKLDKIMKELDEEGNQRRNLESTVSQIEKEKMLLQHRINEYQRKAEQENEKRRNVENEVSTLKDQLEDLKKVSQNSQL

Binder | % activity [1] [%] | % activity [2] [%] | % activity [3] [%] | % activity [4] [%] | % activity [5] [%] | % activity [6] [%] | % activity [7] [%]
KAFAKLAARLYRKALARQLGVAA [MMI-0400] | 61 | 73 | 86 | 95 | 54 | 22 | 96
FAKLAARLYRKALARQLGVAA [MMI-0300] | 78 | 79 | 83 | 94 | 59 | 18 | 111
